Test: Ni-NTA recovery from HEK293, Coomassie SDS-PAGE
Conditions: glycan lost; control: wild-type Pfs48/45 6C

B1: Pfs48/45 6C: S305A (protein)
parent chain: MMLYISAKKAQVAFILYIVLVLRIISGNNDFCKPSSLNSEISGFIGYKCNFSNEGVHNLKPDMRERRSIFCTIHSYFIYDKIRLIIPKKSSSPEFKILPEKCFQKVYTDYENRVETDISELGLIEYEIEENDTNPNYNERTITISPFSPKDIEFFCFCDNTEKVISSIEGRSAMVHVRVLKYPHNILFTNLTNDLFTYLPKTYNESNFVSNVLEVELNDGELFVLACELINKKCFQEGKEKALYKSNKIIYHKNLTIFKAPFYVTSKDVNTECTCKFKNNNYKIVLKPKYEKKVIHGCNFSSNVSSKHTFTDSLDISLVDDSAHISCNVHLSEPKYNHLVGLNCPGDIIPDCFFQVYQPESEELEPSNIVYLDSQINIGDIEYYEDAEGDDKIKLFGIVGSIPKTTSFTCICKKDKKSAYMTVTIDSAYYGFLAKTFIFLIVAILLYI
For B1, the expression_or_secretion was “decreases”.

Reference: paper PMC6203815
